The values that follow come from paper PMC6681339, “CoCUN, a Novel Ubiquitin Binding Domain Identified in N4BP1” (Biomolecules, 2019).

For orientation: Kd means the constant that tells how readily two partners part at equilibrium. Read a high Kd as a looser complex.

Experiment [1] deals with T1, ubiquitin (UniProt P0CG48 1-76, 15N labelled in the complementary NMR experiment; unlabelled otherwise).
T1 construct: the model of the complex used the ubiquitin structure PDB 1D3Z and BMRB 6457; also called monoubiquitin; UBQ
Description: ITC; 3.3 mM ubiquitin titrated to 246 µM N4BP1 (847-896) in the cell; 20 mM Tris-HCl pH 8.0, 150 mM NaCl, 5% glycerol; room temperature; one-site binding model. As to conditions: both partners purified. (In general: In ITC the heat of successive injections is recorded.)

In experiment [2] the target is T1, ubiquitin. The experiment is described as follows: ITC; 2.78 mM N4BP1 (847-896) titrated to 200 µM ubiquitin in the cell; 20 mM Tris-HCl pH 8.0, 150 mM NaCl, 5% glycerol; room temperature; one-site binding model. The note with it: both partners purified.

No end group written: not given here.

B1: CoCUN domain of N4BP1 (aa 847–896), purified polypeptide (domain or fragment, human, UniProt O75113 847-896, looked up)
chain: AQRSSAETNELREALLKIFPDSEQRLKIDQILVAHPYMKDLNALSAMVLD
modifications: also: 15N isotopic labelling
notes: also called Cousin of CUBAN; N4BP1 UBD; source: bacterial expression (protocol for NMR sample preparation), purified
Take B1: the Kd with ubiquitin [1] is 49.7 ± 3.6 µM. In addition, in the experiment with ubiquitin [2], the Kd is 61.8 ± 5.2 µM and the dH is -13 ± 0.4 kJ/mol.
